Residue numbers refer to the chain shown, from its start.
Columns and labels:
FLI1 276-375 D333G = molecular target: T1, FLI1 276-375 D333G (UniProt Q01543 276-375, D333G;F362A); experiment: fluorescence anisotropy
T1 sequence: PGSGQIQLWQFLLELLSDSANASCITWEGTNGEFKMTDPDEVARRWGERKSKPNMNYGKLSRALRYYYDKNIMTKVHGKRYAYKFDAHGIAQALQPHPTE

FLI1 276-375 N329E/D333G [1] = molecular target: T2, FLI1 276-375 N329E/D333G (UniProt Q01543 276-375, N329E;D333G;F362A); experiment: fluorescence anisotropy
T2 sequence: T1 sequence with N54E

FLI1 276-375 N329E [2] = molecular target: T3, FLI1 276-375 N329E (UniProt Q01543 276-375, N329E;F362A); experiment: fluorescence anisotropy
T3 sequence: T1 sequence with N54E, G58D

FLI1 F362A 276-399 [3] = molecular target: T4, FLI1 F362A 276-399 (UniProt Q01543 276-399, F362A); experiment: fluorescence anisotropy
T4 sequence: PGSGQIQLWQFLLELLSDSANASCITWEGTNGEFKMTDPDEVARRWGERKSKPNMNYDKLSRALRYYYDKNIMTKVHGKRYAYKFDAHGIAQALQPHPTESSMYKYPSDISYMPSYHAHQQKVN

FLI1 F362A 259-375 [4] = molecular target: T5, FLI1 F362A 259-375 (UniProt Q01543 259-375, F362A); experiment: fluorescence anisotropy
T5 sequence: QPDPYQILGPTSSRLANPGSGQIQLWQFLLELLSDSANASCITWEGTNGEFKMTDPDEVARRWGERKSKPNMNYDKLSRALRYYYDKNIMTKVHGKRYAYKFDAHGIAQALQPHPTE

FLI1 F362A 259-399 [5] = molecular target: T6, FLI1 F362A 259-399 (UniProt Q01543 259-399, F362A); experiment: fluorescence anisotropy
T6 sequence: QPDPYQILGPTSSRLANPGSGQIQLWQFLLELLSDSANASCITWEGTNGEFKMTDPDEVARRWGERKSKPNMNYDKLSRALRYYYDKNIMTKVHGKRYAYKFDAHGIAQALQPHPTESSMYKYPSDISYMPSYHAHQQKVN

FLI1 F362A 259-371 [6] = molecular target: T7, FLI1 F362A 259-371 (UniProt Q01543 259-371, F362A); experiment: fluorescence anisotropy
T7 sequence: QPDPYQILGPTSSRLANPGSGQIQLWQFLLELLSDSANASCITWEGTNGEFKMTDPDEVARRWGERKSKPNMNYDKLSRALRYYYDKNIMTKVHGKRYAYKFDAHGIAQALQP

FLI1 F362A 276-375 [7] = molecular target: T8, FLI1 F362A 276-375 (UniProt Q01543 276-375, F362A); experiment: fluorescence anisotropy
T8 sequence: T1 sequence with G58D

FLI1 F362A 276-399 [8] = molecular target: T4, FLI1 F362A 276-399; experiment: fluorescence anisotropy; remark: listed apart in the source
FLI1 F362A 259-375 [9] = molecular target: T5, FLI1 F362A 259-375; experiment: fluorescence anisotropy; remark: listed apart in the source
FLI1 276-375 N329E/D333G [10] = molecular target: T2, FLI1 276-375 N329E/D333G; experiment: fluorescence anisotropy; remark: listed apart in the source
FLI1 276-371 [11] = molecular target: T9, FLI1 276-371 (UniProt Q01543 276-371); experiment: fluorescence anisotropy
T9 sequence: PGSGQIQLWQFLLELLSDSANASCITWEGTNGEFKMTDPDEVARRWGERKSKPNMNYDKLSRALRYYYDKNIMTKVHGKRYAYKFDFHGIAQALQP

FLI1 F362A 259-371 [12] = molecular target: T7, FLI1 F362A 259-371; experiment: fluorescence anisotropy; remark: listed apart in the source
FLI1 276-375 N329E [13] = molecular target: T3, FLI1 276-375 N329E; experiment: fluorescence anisotropy; remark: listed apart in the source
FLI1 F362A 276-375 [14] = molecular target: T8, FLI1 F362A 276-375; experiment: fluorescence anisotropy; remark: listed apart in the source
FLI1 F362A 259-375 [15] = molecular target: T5, FLI1 F362A 259-375; experiment: X-ray crystallography
FLI1 DBD 259-399 WT = molecular target: T10, FLI1 DBD 259-399 WT (UniProt Q01543 259-399); experiment: X-ray crystallography
T10 sequence: T6 sequence with A104F

FLI1 F362A 259-399 [16] = molecular target: T6, FLI1 F362A 259-399; experiment: X-ray crystallography
FLI1 276-371 [17] = molecular target: T9, FLI1 276-371; experiment: EMSA
FLI1 F362A 276-375 [18] = molecular target: T8, FLI1 F362A 276-375; experiment: EMSA
FLI1 F362A 276-399 [19] = molecular target: T4, FLI1 F362A 276-399; experiment: EMSA
FLI1 F362A 259-399 [20] = molecular target: T6, FLI1 F362A 259-399; experiment: EMSA
FLI1 F362A 259-399 [21] = molecular target: T6, FLI1 F362A 259-399; experiment: X-ray crystallography; remark: listed apart in the source

B1: 2site_weak-weak (w-w) (dsDNA)
DNA 1: CAGAAAGGAAGGAAGTG
DNA 2: CACTTCCTTCCTTTCTG
Work on B1 yielded a binding signal (FLI1 276-375 D333G) of ~1 cooperativity factor w, a binding signal (FLI1 276-375 N329E/D333G [1]) of ~1 cooperativity factor w and a binding signal (FLI1 276-375 N329E [2]) of 6 ± 6 cooperativity factor w. It also gave a binding signal (FLI1 F362A 276-399 [3]) of 16 ± 10 cooperativity factor w, a binding signal (FLI1 F362A 259-375 [4]) of 103 ± 26 cooperativity factor w and a binding signal (FLI1 F362A 259-399 [5]) of 41 ± 21 cooperativity factor w. It also gave a binding signal (FLI1 F362A 259-371 [6]) of 22 ± 7 cooperativity factor w and a binding signal (FLI1 F362A 276-375 [7]) of 33 ± 20 cooperativity factor w.

B2: 1site_weak (dsDNA)
DNA 1: TTGAAGGAAGAG
DNA 2: CTCTTCCTTCAA
In the case of B2, the Kd (FLI1 F362A 276-399 [8]) is reported as 146 ± 37 nM, the Kd (FLI1 F362A 259-375 [9]) is reported as 544 ± 288 nM and the Kd (FLI1 276-375 N329E/D333G [10]) is reported as 126 ± 14 nM. It also gave a Kd (FLI1 276-371 [11]) of 402 ± 172 nM, a Kd (FLI1 F362A 259-371 [12]) of 1010 ± 421 nM and a Kd (FLI1 276-375 N329E [13]) of 275 ± 39 nM. The Kd (FLI1 F362A 276-375 [14]) was 137 ± 34 nM.

B3: 3sites (dsDNA)
DNA 1: GACCGGAAGGAAGGAAGTG
DNA 2: CACTTCCTTCCTTCCGGTC
B3: binds (FLI1 F362A 259-375 [15]).

B4: 2sites (dsDNA)
DNA 1: GACCGGAAGGAAGTG
DNA 2: CACTTCCTTCCGGTC
B4: binds (FLI1 DBD 259-399 WT); binds (FLI1 F362A 259-399 [16]).

B5: 2site_strong-weak (s-w) (dsDNA)
DNA 1: CAGACCGGAAGGAAGTG
DNA 2: CACTTCCTTCCGGTCTG
B5: binds (FLI1 276-371 [17]); binds (FLI1 F362A 276-375 [18]); binds (FLI1 F362A 276-399 [19]). B5: binds (FLI1 F362A 259-399 [20]).

B6: 4sites (dsDNA)
DNA 1: GACCGGAAGGAAGGAAGGAAGTGCG
DNA 2: CGCACTTCCTTCCTTCCTTCCGGTC
B6: binds (FLI1 F362A 259-399 [21]).

From paper PMC11934925
